Here are results for one substance from publication PMC1533836.

In general, koff refers to the first-order rate constant of dissociation. As usually defined, the kon is a measure of how fast the partners come together.

The experiment deals with APNAnq 100 (100-kDa aminopeptidase N from Anopheles quadrimaculatus brush border membrane) (Anopheles quadrimaculatus). Description: SPR. A general note: SPR reads the build-up and loss of mass on a sensor chip optically.

Take “Bacillus thuringiensis Cry11Ba toxin (trypsin-activated) (from UniProt Q45730 1-724) (natural protein)”: the koff amounted to 1.03e-07 s⁻¹ and the kon was 184 M⁻¹ s⁻¹.
